The values below come from paper PMC11844742, “Structural basis of aquaporin-4 autoantibody binding in neuromyelitis optica” (Science Advances, 2025).

Values joined by “and” are separate entries in the source; they are usually repeats but may differ in a detail not shown here. Identical values can stand only once.

What all share (conditions): both partners purified
Assay [1] has as its target T1, human aquaporin-4 (AQP4) isoform M1, full length, tetramer in detergent (human, UniProt P55087-1).
T1 construct: aquaporin-4, human, isoform M1, full length (residues 1 to 323); synthesized gene in pPICZ; The purification protocol says the N-terminal tag was cleaved by thrombin; also called AQP4 M1; AQP4 in detergent; source: Pichia pastoris X-33 (strain MG3), purified in DDM (Ni-NTA, thrombin cleavage, cobalt resin, SEC Superdex 200); not shown: 8xHis, N-terminal, cleaved
In words: cryo-EM structure; AQP4 in detergent, 18 uM, mixed with ~75 uM Fab186; ~12 uM AQP4 on grids; no symmetry imposed; 2.9 A.

In assay [2] the target is T2, human aquaporin-4 (AQP4) isoform M1, full length, tetramer in MSP1E3D1 lipid nanodiscs (human, UniProt P55087-1).
T2 construct: aquaporin-4, human, isoform M1, full length (residues 1 to 323); synthesized gene in pPICZ; a thrombin cleavage site lies between the tags and the protein; Homo-tetramer embedded in a nanodisc (soybean polar lipids, MSP1E3D1); for BLI the MSP 1E3D1 was biotinylated; also called AQP4 M1; M1 tetramer; not shown: 8xHis, N-terminal, kept
T2 sequence (P55087 whole entry, the tested form may be a part, canonical isoform): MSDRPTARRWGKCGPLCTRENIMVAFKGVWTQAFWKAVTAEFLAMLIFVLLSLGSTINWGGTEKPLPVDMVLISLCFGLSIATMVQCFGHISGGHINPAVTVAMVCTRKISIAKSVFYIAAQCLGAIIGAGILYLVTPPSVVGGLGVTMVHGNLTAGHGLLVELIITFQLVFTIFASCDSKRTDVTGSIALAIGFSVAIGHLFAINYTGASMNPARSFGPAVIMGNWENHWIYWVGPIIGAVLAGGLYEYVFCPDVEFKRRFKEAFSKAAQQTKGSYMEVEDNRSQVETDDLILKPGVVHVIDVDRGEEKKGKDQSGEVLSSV
In words: cryo-EM 2D classification; AQP4 M1 in nanodiscs mixed with 30-fold molar excess of Fab186; severe orientation bias, no high-resolution map.

Assay [3] concerns the target T2, human aquaporin-4 (AQP4) isoform M1, …. The assay is described as follows: cryo-EM structure; AQP4 M1 in nanodiscs (0.3 uM) mixed with ~5-fold molar excess of Fab58; no symmetry imposed; 2.5 A.

T1 sequence (P55087 whole entry, the tested form may be a part, canonical isoform): as above

B1: Fab186, Fab fragment of patient-derived NMO recombinant antibody rAb186 (Fab, V domains shown)
VH: QVQLQESGPGLVKPSQTLPLTCTVSGGYISSGSHQWGWIRQPAGKGLEWIGRIYTSGSTNYNPSLKSRVTISVDTSKNQFSLKLSSVTAADTAVYYCARVNYDLLTGRANFFDPWGQGTPVTVSS
VL: EIVLTQSPGTLSLSPGERATLSCRASQSVSSRSVAWYQQKPGQAPRLLIYGASNRATGIPDRFSGSGSGTDFTLTISRLEPEDFVVFYCQQYGSSPLTFGGGTKVEIK
notes: heavy chain (HC) of Fab186 in the deposited model PDB 8V9D; light chain (LC) of Fab186 in the deposited model PDB 8V9D; also called rAB186 Fab; source: rAb186 IgG from Expi293F (MabSelect purified), papain cleavage (Pierce Fab kit), Fc removed with Protein A agarose
As usually defined, the stoichiometry N is a count of units in the complex or per binding partner. Regarding B1, the “stoichiometry N” value in assay [1] was ≤ 4 Fab per AQP4 tetramer and 3 Fab per AQP4 tetramer; in assay [2] it was 4 Fab per AQP4 tetramer.

B2: Fab58, Fab fragment of patient-derived NMO recombinant antibody rAb58 (Fab, V domains shown)
VH: QVQLVESGGGLVQPGGSLRLSCAASGFTFRGYAMNWVRQAPGKGLEWVASISGSGSITQYADSAKGRFTITRDNSKSTLYAHVSSLRADDTAVYYCAKGDYVFDYWGQGTLVTVSS
VL: DIQMTQSPSALSASVGDTVTITCRASQSIRSWLAWYQQKPGKAPKLLIYKASDLQSGVPSRFSGSGSGTDFTLTISGLQPDDFATYYCQHYNSYPYTFGQGTKVEIR
notes: heavy chain (HC) of Fab58 in the deposited model PDB 8V91; light chain (LC) of Fab58 in the deposited model PDB 8V91; also called rAB58 Fab; source: rAb58 IgG from Expi293F (MabSelect purified), papain cleavage (Pierce Fab kit), Fc removed with Protein A agarose
Consider B2, for which the “stoichiometry N” value in assay [3] is 1 Fab per AQP4 tetramer.
